# Source: US20160177307
# Biological target: PDGF-BB (platelet-derived growth factor BB) (Homo sapiens) (UniProt P01127)
# Assay: filter
# [1] = Tyr, MBn, FBn, Ib, 2Nap, Pe, Th, NE dU, Heg, 2'-OMe
# [2] = all Z are BndU, rest DNA, SB18T, 37 C
# [3] = all P are NapdU, rest DNA, SB18T, 37 C
# PDGF-BB (platelet-derived growth factor BB) (Homo sapiens), sequence (P01127 82-190): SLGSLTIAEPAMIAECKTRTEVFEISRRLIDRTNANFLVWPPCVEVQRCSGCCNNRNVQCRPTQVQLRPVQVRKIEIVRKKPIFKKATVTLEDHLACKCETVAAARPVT
sequence,measurement,setting,value
CGACAGCATGTATGCACATCT [5169-4_180],Kd,"as 5169-4_146, PS 16, 3' inverted dT",0.02 nM
CGACAGCATGTATGCACATCT [5169-4_172],Kd,"as 5169-4_146, PS 1, 3' inverted dT",0.013 nM
GACAGCATGTATGCACATCTAGAG [5169-4_32],Kd,NapdU at P,0.053 nM
CGACAGCATGTATGCACATCT [5169-4_49],Kd,"NapdU at P, 2'-OMe 9",0.53 nM
TTACGACTACGTTACACGCGTTTATAGCG [4149-8_109],Kd,"Bn-dU, 2'-OMe U22",> 10 nM
CGACAGCATGTATGCACATCT [5169-4_81],Kd,"NapdU at P, 2'-OMe 7,14,16,18",0.0049 nM
CGTTACACGCGTTTATAGCGTCAACCCGAGTGAACA [4149-8_17],Kd,Bn-dU,> 10 nM
TTACGTTACGCGTTTATAGCG [4149-8_304],Kd,"Bn-dU, C3 linkers, 2'-OMe",> 10 nM
CGACAGCATGTATGCACATCT [5169-4_178],Kd,"as 5169-4_146, PS 6, 3' inverted dT",0.011 nM
TTACGTTACCGCGTTTATAGCG [4149-8_420],Kd,"as 4149-8_379, 2'-OMe 15, iBudU 16",1.4 nM
TTACGTTACACGCGTTTATAGCG [4149-8_250],Kd,[1],> 10 nM
CTGCCTCGACAGCATGTATGCACATCTAGAGGCTACCC [5169-4_10],Kd,NapdU at P,0.63 nM
CGACAGCATGTATGCACATCT [5169-4_106],Kd,"NapdU at P, 2'-OMe 1,18,20",0.016 nM
TTACGTTACCGCGTTTATAGCG [4149-8_455],Kd,"BndU, NapdU 16, 2'-OMe 3,7,12,13,18,19,21,24, PS 8,9,15,16,17, Heg 5, C3 11",0.017 nM
CGACAGCATGTATGCACATCTAGA [5169-4_23],Kd,NapdU at P,0.02 nM
CGACAGCATGTATGCACATCT [5169-4_83],Kd,"NapdU at P, 2'-OMe 1,6,7,14,15,16,18,20,21",0.0021 nM
TTACGTTACACGCGTTTATAGCGNT [4149-8_342],Kd,"4149-8_260 3'-3' dimer, 3 Heg, doubler",0.0181 nM
TTACGCCGTTACACGCGTTTATAGCG [4149-8_102],Kd,"Bn-dU, C3 linkers, 2'-OMe",> 10 nM
CGACAGCATGTATGCACATCTAGAGGCTACCCAGT [5169-4_17],Kd,NapdU at P,0.02 nM
TTACGACTACGTTACACGCGTTTATGCG [4149-8_89],Kd,"Bn-dU, C3 at 26",> 10 nM
TTACGACTACGTACACGCGTTTATAGCG [4149-8_76],Kd,"Bn-dU, C3 at 13",> 10 nM
CGACAGCATGTATGCACATCT [5169-4_41],Kd,"NapdU at P, 2'-OMe 10",0.097 nM
TTACGTTACACGCGTTTATAGCG [4149-8_251],Kd,[1],> 10 nM
ATCTCTTACGACTACGTTACACGCGTTTATAGCGTCAACCCGAGTG [4149-8_5],Kd,[2],0.02 nM
TTACGTTACACGCGTTTATAGCG [4149-8_186],Kd,"Bn-dU, 2Nap-dU8, Heg5, 2'-OMe A3, A11, A21, G24",> 10 nM
CGACAGCATGTATGCACATCTAGAGGCTACCCAGTGA [5169-4_15],Kd,NapdU at P,0.019 nM
CGACAGCATGTATGCACTCT [5169-4_76],Kd,"C3 spacer at 18, NapdU at 9,11,13,19,21, C3 spacer walk",1.3 nM
TTACGACTACGTTACACGCGTTTA [4149-8_43],Kd,Bn-dU,> 10 nM
ATCTCTTACGACTACGTTACACGCGTTTATAGCGTCAACCCG [4149-8_7],Kd,[2],0.02 nM
TTACGACTACGTTACACGCGTTTATAGCG [4149-8_107],Kd,"Bn-dU, 2'-OMe U13",> 10 nM
TACGACTACGTTACACGCGTTTATAGCG [4149-8_65],Kd,"Bn-dU, C3 at 2",> 10 nM
CGACAGCATGTATGCACATCT [5169-4_179],Kd,"as 5169-4_146, PS 14, 3' inverted dT",0.0077 nM
TTACGTTACCGCGTTTATAGCG [4149-8_391],Kd,"BndU, PS 9,15, 2'-OMe, Heg 5, C3 11",0.012 nM
GACAGCATGTATGCACATCTA [5169-4_29],Kd,NapdU at P,0.062 nM
CGACAGCATGTATGCACATCT [5169-4_109],Kd,"NapdU at P, 2'-OMe 1,6,16",0.011 nM
CGACAGCATGTATGCACATCT [5169-4_40],Kd,"NapdU at P, 2'-OMe 6",0.024 nM
TTACGTTACACGCGTTTATAGCG [4149-8_252],Kd,"Trp, Ib, NE, Th, Pe, MBn dU, Heg, 2'-OMe",> 10 nM
CGACAGCATGTATGCACATCT [5169-4_117],Kd,"NapdU at P, 2'-OMe 4,12,17",0.71 nM
CGACGCATGTATGCACATCT [5169-4_63],Kd,"NapdU at P, C3 spacer at 5",29 nM
CGACAGCATGTATGCACATCT [5169-4_53],Kd,"NapdU at P, 2'-OMe 21",0.022 nM
TTACGTTACACGCGTTTATAGCGNT [4149-8_340],Kd,"4149-8_260 3'-3' dimer, Heg, doubler",0.0189 nM
CGACAGCATGTATGCACATCT [5169-4_50],Kd,"NapdU at P, 2'-OMe 11",0.047 nM
TTACGTTACCGCGTTTATAGCG [4149-8_423],Kd,"as 4149-8_379, 2'-OMe 13, NapdU 16",0.033 nM
TTACGTTACCGCGTTTATAGCG [4149-8_425],Kd,"as 4149-8_379, 2'-OMe 9",0.91 nM
CGACAGCATGTATGCACATCT [5169-4_176],Kd,"as 5169-4_146, PS 17, 3' inverted dT",0.014 nM
CGACTACGTTACACGCGTTTATAGCGTCAACCCGAGTGAACA [4149-8_14],Kd,[2],13 nM
TACGACTACGTTACACGCGTTTATAGCGTCAACCCGAGTGAACA [4149-8_13],Kd,[2],0.8 nM
CGACAGCATGTATGCACATCT [5169-4_57],Kd,"NapdU at 9,11,13,21, dT at 19, dT substitution",120 nM
TTACGACTACGTTACACGCGTTTATAGCG [4149-8_38],Kd,"BndU at 1,2,8,12,13,21,22,23,25, rest DNA, SB18T, 37 C, text p191 gives 20 pM, Table 1a 30 pM",0.05 nM
TTACGACTACGTTACACGCGTTATAGCG [4149-8_84],Kd,"Bn-dU, C3 at 21",> 10 nM
TTACGTTACCGCGTTTATAGCG [4149-8_456],Kd,"BndU, NapdU 16, 2'-OMe 3,7,12,18,19,21,24, PS 8,9,15,16,17, Heg 5, C3 11",0.027 nM
CGACAGCATGTATGCACATCT [5169-4_108],Kd,"NapdU at P, 2'-OMe 1,6,14",0.012 nM
CGACAGCATGTATGCACATCT [5169-4_44],Kd,"2'-OMe A5, NapdU at 9,11,13,19,21, 2'-OMe substitution",0.53 nM
CGACAGCATGTATGCACATCT [5169-4_118],Kd,"NapdU at P, 2'-OMe 2,4,17",0.56 nM
CGACAGCATGTATGCACATCT [5169-4_55],Kd,"NapdU at 9,13,19,21, dT at 11, dT substitution",7.8 nM
TTACGACTACGTTACACGCGTTTATAG [4149-8_40],Kd,"BndU at 1,2,8,12,13,21,22,23,25, rest DNA, SB18T, 37 C",1.5 nM
CTGCCTCGACAGCATGTATGCACATCTAGAGGCTACCCAGT [5169-4_9],Kd,[3],0.72 nM
TTACGTTACACGCGTTTATAGCG [4149-8_196],Kd,"Bn-dU, 2NE-dU17, Heg5, 2'-OMe A3, A11, A21, G24",> 10 nM
CGACAGCATGTATGCACATCT [5169-4_52],Kd,"NapdU at P, 2'-OMe 19",0.31 nM
TTACGACTACGTTACACGCGTTTATAGCGT [4149-8_37],Kd,[2],0.04 nM
CGACAGCATGTATGCACATCT [5169-4_155],Kd,"as 5169-4_146, PS 10, 3' inverted dT",0.0069 nM
TTCGACTACGTTACACGCGTTTATAGCG [4149-8_66],Kd,"Bn-dU, C3 at 3",> 10 nM
CGACAGCATGTATGCACATCT [5169-4_51],Kd,"NapdU at P, 2'-OMe 13",0.32 nM
TTACGACTACTTACACGCGTTTATAGCG [4149-8_74],Kd,"Bn-dU, C3 at 11",> 10 nM
CGACAGCATGTATGCACATCT [5169-4_182],Kd,"as 5169-4_146 plus PS 3' of 9,10,11,12, 3'-idT",0.039 nM
TTACGTTACCGCGTTTATAGCG [4149-8_424],Kd,"as 4149-8_379, 2'-OMe 13,14",6.6 nM
ACAGCATGTATGCACATCTAGAGGCTACCCAGTGAA [5169-4_14],Kd,[3],0.17 nM
CGACAGCATGTATGCACATCT [5169-4_159],Kd,"as 5169-4_146, PS 19, 3' inverted dT",0.015 nM
CGACAGCATGTATGCACATCTAGAGG [5169-4_21],Kd,NapdU at P,0.021 nM
CGACAGCATGTATGCACATCT [5169-4_124],Kd,"NapdU at P, 2'-OMe 5,20,21",0.6 nM
TTACGTTACACGCGTTTATAGCG [4149-8_127],Kd,"Bn-dU, Nap-dU, Heg, 2'-OMe U as printed",> 10 nM
CGACAGCATGTATGCACATCT [5169-4_86],Kd,"NapdU at P, 2'-OMe 1,2,4,6,7,11,14-18,20,21",0.064 nM
TTACGACTACGTTACACGGTTTATAGCG [4149-8_82],Kd,"Bn-dU, C3 at 19",> 10 nM
CGACAGCATGTATGCACATCTAGAGGCTACCCAGTG [5169-4_16],Kd,NapdU at P,0.016 nM
TTACGTTACACGCGTTTATAGCG [4149-8_310],Kd,"Bn-dU, 2'-OMe Bn-U17, Heg5, 2'-OMe A3, A11, A21, G24",> 10 nM
CGACAGCATGTATGCACATCT [5169-4_156],Kd,"as 5169-4_146, PS 11, 3' inverted dT",0.0078 nM
CGACAGCATGTATGCACATCT [5169-4_80],Kd,"NapdU at P, 2'-OMe 7,16,18",0.0061 nM
TTACGACTACGTTACACGCGTTTAT [4149-8_42],Kd,Bn-dU,> 10 nM
CGACACATGTATGCACATCT [5169-4_64],Kd,"C3 spacer at 6, NapdU at 9,11,13,19,21, C3 spacer walk",0.054 nM
CGACAGCATGTATGCACATCT [5169-4_130],Kd,"NapdU at P, 2'-OMe 7,8,9",4.5 nM
